In patent publication US9304127B2, “Anti-adrenomedullin (ADM) antibody or anti-ADM antibody fragment for use in therapy” (ADRENOMED AG, priority 2011, dated 2016):

Target: T1, hADM (Homo sapiens, UniProt P35318)
T1 construct: comprises the amino acids 95 to 146 of pre-proADM; host or cells: added to human citrate plasma
T1 sequence (P35318 95-146): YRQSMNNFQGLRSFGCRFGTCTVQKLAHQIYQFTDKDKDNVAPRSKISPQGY
Experiment: Stability of human Adrenomedullin in human citrate plasma (hADM immunoassay)
Assay type: in vitro ADME
Conditions: 24° C., hADM 10 nM, NT-H 100 μg/ml
Procedure: The stabilizing effect of human ADM by human ADM antibodies was tested using a hADM immunoassay.
The technology used was a sandwich coated tube luminescence immunoassay, based on Acridinium ester labelling.
The final concentration was approx. 800.000 relative light units (RLU) of labelled compound (approx. 20 ng labeled antibody) per 200 μL.
After blocking with 5% bovine serum albumine, the tubes were washed with PBS, pH 7.4 and vacuum dried.
The assay was calibrated, using dilutions of hADM
(BACHEM AG, Switzerland) in 250 mmol/L NaCl, 2 g/L Triton X-100, 50 g/L Bovine Serum Albumin, 20 tabs/L Protease Inhibitor Cocktail (Roche Diagnostics AG, Switzerland))
Unbound tracer was removed by washing 5 times (each 1 ml) with washing solution (20 mM PBS, pH 7.4, 0.1% Triton X-100).
Human ADM was diluted in human Citrate plasma (final concentration 10 nM) and incubated at 24° C. At selected time points, the degradation of hADM was stopped by freezing at −20° C. […] The remaining hADM was quantified by using the hADM immunoassay described above.

B1: NT-H: murine monoclonal antibody raised against human ADM region 1-21 (SEQ ID: 15) (antibody, V domains shown)
VH: QVQLQQSGAELMKPGASVKISCKATGYTFSRYWIEWVKQRPGHGLEWIGEILPGSGSTNYNEKFKGKATITADTSSNTAYMQLSSLTSEDSAVYYCTEGYEYDGFDYWGQGTTLTVSS
VL: DVLLSQTPLSLPVSLGDQATISCRSSQSIVYSNGNTYLEWYLQKPGQSPKLLIYRVSNRFSGVPDRFSGSGSGTDFTLKISRVEAEDLGVYYCFQGSHIPYTFGGGTKLEIK
- half life of hADM in the presence of NT-H: 18.3 h
